Molecular target: the molecule itself
Assay: SEC; analytical gel filtration, HiLoad 16/60 Superdex 200, 50 mM Tris, 150 mM KCl, pH 8.0, 0.1% LDAO; calibrated with soluble protein standards (B-amylase, carbonic anhydrase, cytochrome c); elution at 72 ml against 71 ml expected for a tetramer

B1: human cardiac ryanodine receptor (RyR2) pore-forming region (domain or fragment, UniProt Q92736 4758-4967, looked up)
chain: SSVTHNGKQLVLTVGLLAVVVYLYTVVAFNFFRKFYNKSEDGDTPDMKCDDMLTCYMFHMYVGVRAGGGIGDEIEDPAGDEYEIYRIIFDITFFFFVIVILLAIIQGLIIDAFGELRDQQEQVKEDMETKCFICGIGNDYFDTVPHGFETHTLQEHNLANYLFFLMYLINKDETEHTGQESYVWKMYQERCWEFFPAGDCFRKQYEDQLN
notes: Cardiac ryanodine receptor RyR2, human, pore-forming region, residues 4758-4967 (printed as 209 residues), up to the natural C-terminus; 27.3 kDa with the tag; also called hRyR2-PFR; RyR2-PFR; source: E. coli Rosetta (DE3) pLysS, pET19b; membranes solubilised in 1% LDAO, purified (Ni-NTA, Superdex 200 gel filtration in 0.1% LDAO); not shown: deca-His, N-terminal, kept
stoichiometry N: 4

From publication PMC3680380, “Functional Characterization of the Cardiac Ryanodine Receptor Pore-Forming Region” (PLoS ONE, 2013)
